Earlier results on 1 molecule are cited in patent US20020019334A1, “Nutritional intervention composition for enhancing and extending satiety” (priority 2000, published 2002).

For this data set the following is noted: injection, humans.

B1: Cholecystokinin (peptide, UniProt P06307 21-115, looked up)
Cholecystokinin: QPVPPADPAGSGLQRAEEAPRRQLRVSQRTDGESRAHLGALLARYIQQARKAPSGRMSIVKNLQNLDPSHRISDRDYMGWMDFGRRSAEEYEYPS
modifications: Cholecystokinin
As to B1, the “decrease of food intake” value is reported as 16%.
